In PMC6380570:
pKd: −log10 of the molar value.

How the values were obtained:
[1] = biological target: S100A1 protein (1-93 amino acids); assay: other fluorescence titration; tryptophan fluorescence of S100A1 (3.50 uM; excitation 295 nm, emission 344 nm); S100A4 added from 0 to 10.50 uM in steps of about 0.70 uM; 0.1 mM EDTA, 8 mM NaCl, 0.34 mM NaN3, 6 mM CaCl2, 16 mM Tris, pH 6.0; linear (double-reciprocal) fit
[2] = biological target: S100A1 protein (1-93 amino acids)

pKd [1]: 5.21
WST-1 proliferation assay of SW480 cells (which contain RAGE) treated with the S100A4-S100A1 complex (100 nM), against S100A1 alone; pair said to be blocked: S100A1 and the RAGE V domain [2]: 1.38 fold
Substance: S100A4 (Mts1) protein (from UniProt P26447 4-101) (natural protein)
